What was measured:
Assay in all cases: holdup assay
Parameters in all cases: key: below the threshold = too weak to quantify, mostly under pKd 3.1 to 4
Settings in all cases: plain residues with an end cap or a label only (N-terminal biotin on a linker: ado-ado)
AHNAK1, Q09666 = target: AHNAK1, Q09666
APBA2_1, Q99767 = target: T1, APBA2_1, Q99767
T1 sequence (Q99767 563-664, limits assumed, looked up): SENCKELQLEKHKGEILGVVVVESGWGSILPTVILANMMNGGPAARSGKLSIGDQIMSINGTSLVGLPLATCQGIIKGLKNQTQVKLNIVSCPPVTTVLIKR

DFNB31_3, Q9P202 = target: T2, DFNB31_3, Q9P202
T2 sequence (Q9P202 811-907, limits assumed, looked up): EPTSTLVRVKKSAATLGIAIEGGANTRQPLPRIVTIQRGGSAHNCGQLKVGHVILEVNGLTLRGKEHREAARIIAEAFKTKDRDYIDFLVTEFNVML

DLG1_2, Q12959 = target: DLG1_2, Q12959
Chain of DLG1_2, Q12959 (Q12959 314-412): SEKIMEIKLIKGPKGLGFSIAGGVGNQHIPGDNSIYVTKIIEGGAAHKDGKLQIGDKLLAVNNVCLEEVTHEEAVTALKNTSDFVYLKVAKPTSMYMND

DLG1_3, Q12959 = target: DLG1_3, Q12959
Chain of DLG1_3, Q12959 (Q12959 457-571): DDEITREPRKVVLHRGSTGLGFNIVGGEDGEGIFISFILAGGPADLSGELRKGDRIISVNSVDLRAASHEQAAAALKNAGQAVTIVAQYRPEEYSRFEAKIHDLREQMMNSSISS

DLG3_1, Q92796 = target: T3, DLG3_1, Q92796
T3 sequence (Q92796 125-227, limits assumed, looked up): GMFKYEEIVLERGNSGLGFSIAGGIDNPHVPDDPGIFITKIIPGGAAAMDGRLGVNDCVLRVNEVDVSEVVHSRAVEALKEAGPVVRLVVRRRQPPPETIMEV

GORASP1, Q9BQQ3 = target: GORASP1, Q9BQQ3
Chain of GORASP1, Q9BQQ3 (Q9BQQ3 1-208): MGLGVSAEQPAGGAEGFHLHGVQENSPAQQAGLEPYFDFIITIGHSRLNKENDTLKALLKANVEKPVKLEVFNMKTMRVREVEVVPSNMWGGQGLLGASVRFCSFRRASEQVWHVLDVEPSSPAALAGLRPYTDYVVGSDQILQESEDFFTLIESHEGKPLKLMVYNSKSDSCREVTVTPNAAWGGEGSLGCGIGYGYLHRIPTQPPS

HTRA3, P83110 = target: T4, HTRA3, P83110
T4 sequence (P83110 354-453, limits assumed, looked up): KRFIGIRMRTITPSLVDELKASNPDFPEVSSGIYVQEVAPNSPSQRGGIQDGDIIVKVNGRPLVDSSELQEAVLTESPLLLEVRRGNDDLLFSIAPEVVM

Inadl_2, Q8NI35 = target: Inadl_2, Q8NI35
Chain of Inadl_2, Q8NI35 (Q8NI35 238-335): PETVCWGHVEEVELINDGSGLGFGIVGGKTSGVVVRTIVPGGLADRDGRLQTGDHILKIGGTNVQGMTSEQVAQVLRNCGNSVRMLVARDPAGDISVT

Inadl_9, Q8NI35 = target: Inadl_9, Q8NI35
Chain of Inadl_9, Q8NI35 (Q8NI35 1530-1615): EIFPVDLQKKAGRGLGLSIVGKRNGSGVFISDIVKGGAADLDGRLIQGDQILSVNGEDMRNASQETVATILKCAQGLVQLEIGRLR

LDB3, O75112 = target: LDB3, O75112
Chain of LDB3, O75112 (O75112 1-94): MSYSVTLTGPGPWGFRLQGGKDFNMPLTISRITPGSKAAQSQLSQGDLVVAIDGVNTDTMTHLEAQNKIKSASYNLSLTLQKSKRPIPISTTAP

LNX1_2, Q8TBB1 = target: LNX1_2, Q8TBB1
Chain of LNX1_2, Q8TBB1 (Q8TBB1 371-470): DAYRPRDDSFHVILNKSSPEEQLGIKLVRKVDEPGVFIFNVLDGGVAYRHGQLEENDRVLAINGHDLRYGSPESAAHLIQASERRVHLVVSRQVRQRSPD

LNX2_2, Q8N448 = target: T5, LNX2_2, Q8N448
T5 sequence (Q8N448 334-432, limits assumed, looked up): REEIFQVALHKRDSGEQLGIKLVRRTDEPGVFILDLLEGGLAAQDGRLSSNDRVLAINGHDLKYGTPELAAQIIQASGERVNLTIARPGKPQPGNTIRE

MAGI1_2, Q96QZ7 = target: MAGI1_2, Q96QZ7
Chain of MAGI1_2, Q96QZ7 (Q96QZ7 456-580): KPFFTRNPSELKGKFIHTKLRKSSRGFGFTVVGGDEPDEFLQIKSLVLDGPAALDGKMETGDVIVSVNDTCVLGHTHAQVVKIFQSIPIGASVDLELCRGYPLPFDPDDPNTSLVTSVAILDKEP

MPDZ_10, O75970 = target: T6, MPDZ_10, O75970
T6 sequence (O75970 1624-1722, limits assumed, looked up): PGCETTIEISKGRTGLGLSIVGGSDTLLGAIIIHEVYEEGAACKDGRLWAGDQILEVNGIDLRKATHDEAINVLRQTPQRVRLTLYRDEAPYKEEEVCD

MPP6, Q9NZW5 = target: T7, MPP6, Q9NZW5
T7 sequence (Q9NZW5 125-219, limits assumed, looked up): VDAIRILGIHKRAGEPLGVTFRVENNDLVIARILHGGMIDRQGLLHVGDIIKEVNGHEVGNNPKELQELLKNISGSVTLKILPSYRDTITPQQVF

NHERF3_1, Q5T2W1 = target: T8, NHERF3_1, Q5T2W1
T8 sequence (Q5T2W1 4-100, limits assumed, looked up): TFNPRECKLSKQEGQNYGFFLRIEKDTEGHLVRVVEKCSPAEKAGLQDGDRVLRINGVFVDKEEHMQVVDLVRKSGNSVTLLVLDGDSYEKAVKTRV

NHERF3_3, Q5T2W1 = target: T9, NHERF3_3, Q5T2W1
T9 sequence (Q5T2W1 238-333, limits assumed, looked up): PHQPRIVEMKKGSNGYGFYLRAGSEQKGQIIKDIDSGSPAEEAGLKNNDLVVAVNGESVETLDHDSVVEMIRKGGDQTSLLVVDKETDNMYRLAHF

NHERF4_1, Q86UT5-2 = target: NHERF4_1, Q86UT5-2
Chain of NHERF4_1, Q86UT5-2 (Q86UT5 other isoform, or with tags, fused parts or gaps): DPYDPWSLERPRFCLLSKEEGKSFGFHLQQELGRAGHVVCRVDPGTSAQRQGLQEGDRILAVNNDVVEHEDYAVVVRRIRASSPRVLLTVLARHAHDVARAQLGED

NOS1, P29475 = target: NOS1, P29475
Chain of NOS1, P29475 (P29475 9-101): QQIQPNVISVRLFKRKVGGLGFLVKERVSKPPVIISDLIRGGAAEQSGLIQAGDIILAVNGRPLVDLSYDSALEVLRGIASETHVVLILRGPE

PDLIM1, O00151 = target: PDLIM1, O00151
Chain of PDLIM1, O00151 (O00151 1-87): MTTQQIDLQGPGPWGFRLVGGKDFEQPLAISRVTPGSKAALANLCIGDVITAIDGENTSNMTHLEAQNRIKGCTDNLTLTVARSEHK

PICK1, Q9NRD5 = target: PICK1, Q9NRD5
Chain of PICK1, Q9NRD5 (Q9NRD5 17-115): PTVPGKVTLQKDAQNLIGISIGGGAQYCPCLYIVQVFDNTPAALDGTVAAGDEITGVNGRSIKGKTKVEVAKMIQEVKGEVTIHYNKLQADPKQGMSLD

RAPGEF6, Q8TEU7 = target: T10, RAPGEF6, Q8TEU7
T10 sequence (Q8TEU7 525-625, limits assumed, looked up): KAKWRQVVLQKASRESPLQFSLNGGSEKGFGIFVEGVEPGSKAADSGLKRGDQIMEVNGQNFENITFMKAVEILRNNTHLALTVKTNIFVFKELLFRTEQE

SCRIB_3, Q14160 = target: SCRIB_3, Q14160
Chain of SCRIB_3, Q14160 (Q14160 999-1103): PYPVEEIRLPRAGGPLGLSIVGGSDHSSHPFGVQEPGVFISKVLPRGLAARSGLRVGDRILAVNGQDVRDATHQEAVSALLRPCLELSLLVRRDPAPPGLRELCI

SNTA1, Q13424 = target: T11, SNTA1, Q13424
T11 sequence (Q13424 82-180, limits assumed, looked up): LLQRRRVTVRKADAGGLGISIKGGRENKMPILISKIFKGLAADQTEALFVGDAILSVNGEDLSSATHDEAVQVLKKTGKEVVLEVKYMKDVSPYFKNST

TJP3_3, O95049 = target: T12, TJP3_3, O95049
T12 sequence (O95049 375-456, limits assumed, looked up): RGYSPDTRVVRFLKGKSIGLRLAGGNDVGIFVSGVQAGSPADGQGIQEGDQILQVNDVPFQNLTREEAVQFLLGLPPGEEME

Chain of AHNAK1, Q09666 (Q09666 4-100): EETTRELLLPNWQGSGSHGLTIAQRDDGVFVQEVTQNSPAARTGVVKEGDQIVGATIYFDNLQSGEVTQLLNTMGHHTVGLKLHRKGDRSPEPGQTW

| Binder | pKd (AHNAK1, Q09666) | pKd (APBA2_1, Q99767) | pKd (DFNB31_3, Q9P202) | pKd (DLG1_2, Q12959) | pKd (DLG1_3, Q12959) | pKd (DLG3_1, Q92796) | pKd (GORASP1, Q9BQQ3) | pKd (HTRA3, P83110) | pKd (Inadl_2, Q8NI35) | pKd (Inadl_9, Q8NI35) | pKd (LDB3, O75112) | pKd (LNX1_2, Q8TBB1) | pKd (LNX2_2, Q8N448) | pKd (MAGI1_2, Q96QZ7) | pKd (MPDZ_10, O75970) | pKd (MPP6, Q9NZW5) | pKd (NHERF3_1, Q5T2W1) | pKd (NHERF3_3, Q5T2W1) | pKd (NHERF4_1, Q86UT5-2) | pKd (NOS1, P29475) | other results |
| --- | --- | --- | --- | --- | --- | --- | --- | --- | --- | --- | --- | --- | --- | --- | --- | --- | --- | --- | --- | --- | --- |
| ELSATVTTDC [TRIP6, Q15654] | below the threshold | below the threshold | 3.62 | 3.67 | 4.02 | below the threshold | below the threshold | 4.04 | below the threshold | below the threshold | 3.72 | 3.88 | 3.76 | below the threshold | below the threshold | below the threshold | below the threshold | 3.87 | 3.69 | below the threshold | pKd (PDLIM1, O00151): below the threshold; pKd (PICK1, Q9NRD5): 3.8; pKd (RAPGEF6, Q8TEU7): below the threshold; pKd (SCRIB_3, Q14160): 4.24; pKd (SNTA1, Q13424): 3.92; pKd (TJP3_3, O95049): below the threshold |
| SPDRDRESIV [SCN5A, Q14524] | below the threshold | below the threshold | 4.06 | 4.86 | below the threshold | 3.9 | 3.71 | below the threshold | below the threshold | 3.54 | below the threshold | below the threshold | 4.44 | 3.51 | 3.55 | below the threshold | 3.72 | below the threshold | below the threshold | 3.7 | pKd (PDLIM1, O00151): below the threshold; pKd (PICK1, Q9NRD5): 4.21; pKd (RAPGEF6, Q8TEU7): below the threshold; pKd (SCRIB_3, Q14160): 3.86; pKd (SNTA1, Q13424): 6.16; pKd (TJP3_3, O95049): below the threshold |
| DDASLPVSDV [PLEKHA1, Q9HB21] | below the threshold | below the threshold | 4.54 | below the threshold | below the threshold | below the threshold | below the threshold | below the threshold | below the threshold | 3.59 | below the threshold | below the threshold | below the threshold | below the threshold | 3.91 | below the threshold | below the threshold | below the threshold | below the threshold | below the threshold | pKd (PDLIM1, O00151): 3.57; pKd (PICK1, Q9NRD5): below the threshold; pKd (RAPGEF6, Q8TEU7): below the threshold; pKd (SCRIB_3, Q14160): 4.1; pKd (SNTA1, Q13424): 4.44; pKd (TJP3_3, O95049): below the threshold |
| ARESQKVSHV [FAM110B, Q8TC76] | below the threshold | below the threshold | below the threshold | 4.68 | below the threshold | below the threshold | 3.8 | below the threshold | below the threshold | 3.9 | below the threshold | below the threshold | 4 | 4.09 | 4.08 | below the threshold | below the threshold | below the threshold | 3.74 | 3.55 | pKd (PDLIM1, O00151): below the threshold; pKd (PICK1, Q9NRD5): below the threshold; pKd (RAPGEF6, Q8TEU7): below the threshold; pKd (SCRIB_3, Q14160): 4.47; pKd (SNTA1, Q13424): 4.25; pKd (TJP3_3, O95049): below the threshold |
| PPGKHLVTEV [KCNA7, Q96RP8] | below the threshold | below the threshold | 4.01 | 5.1 | 4.09 | 4.21 | below the threshold | below the threshold | below the threshold | below the threshold | below the threshold | 3.53 | 4.91 | 4.24 | below the threshold | below the threshold | below the threshold | below the threshold | 3.94 | 3.7 | pKd (PDLIM1, O00151): below the threshold; pKd (PICK1, Q9NRD5): below the threshold; pKd (RAPGEF6, Q8TEU7): 3.52; pKd (SCRIB_3, Q14160): 4.56; pKd (SNTA1, Q13424): 3.95; pKd (TJP3_3, O95049): below the threshold |
